Experimental data: a protein production outcome set (Wang et al. 2014)

Assay: label from the status in PepcDB records

Row | Sequence | protein production
1 | MFFRSIRFSLTLWYAVTLAVILVLFSSFIYLVLSNQLNKGIDRELLTVAEAVASPTLEPFRHAAPSVFDQVLEDFIGTRLTGKHVQVLDGSGAVAASSKSMEELRIPLGKTALRRVQAGKVSYETRVNLDVYPVRTIVYPIMTDGRLDQIVLVGTSMRGPAETLEKVQLVFAVSIPLALILWSLGGWFLAGRALKPVDLITRSARKITAENLGLRLEVINPQDEIGRLATTFNDTLERLENAFNRIRQFTGDVSHELRTPLTILRGEAEVGLKWAKEPEEFRELLRSNLEEINRMSKIIETLLELSRVEGGVKLELADLDLSDLLAELVQQSRLIAPDKSLRIAFVGQEPVTILGDWLRLRQVFMNLLDNAVKYTPADGEISVVVDTTGDSARVAIIDSGPGIPPEDLPHIFERFYRVDKARNRADGGCGLGLSLVKTFVEAHGGRIEVVSEAGKGSIFTVLLPRVVAG | not failed
2 | MFFVNRRLIKRVFLGFAVIALLLPLVLKQSFEITAEVIVQSKKLSQTDANTVLAPDSDKFIPPSLADMETESNILRSPTLIRDTIDQLRREGQFGGSEGLLTRLIVKPIRNGLIDPLRNHVINPVRGFFGLAVDPVRDTSLDAFTDQAVKDLKIGTLPGSNVISIVYASPNAAEGTRFVERLLANYLKNRQDLQSNELPEAFYEQKKAQYQSRLDDLEGKRQALLEAAHASDPKEEITFRLNAINTEEQSLNGYRDQALENQRRLDYLQKNLAAARKAGLTDYTFPFAFANTVDNVAYEDREIKQLGEQLTNLVSQYGTTADTYRADSVPMQQQREQIVRARAQFLKVVENRVRERSSDLQITQSVIAQKTARINDYKARVRDLQEVLSKLRQLDTEIDALHKAFFTYTQRYEESRGERLISGELSNARVLSQPYEPSEAAFPKPMLIIPLGLLTGLLLAIALGYVYEFFDHRFKHPAQVSDHLGLPVLMVLNAVEQPQVNPYPRWTWRWAWHWAKQ | failed
3 | MFGAELVIVLLAIYLGARLGGIGIGFAGGLGVLVLTLIFQIKPGAIPFDVIEIIMAVIAAIAAMQVAGGMDYLVSLAERMLRRHPKYITFLAPLVTWFMTVLAGTGHTAFSTLPVITEVAKEQGIRPSRPLSIAVVASQIAITASPISAAVVFFAGILEPLGVSYLTLLAICIPVTLLAVMLTAIVCNFLGCELKDDPVYQERLAKGEVRLRGSQVFELQPHAKRSVLLFLIGIVAVMFYATAISDTVGLIKNPVLPRNEAIVVFMLTIATLISITCKIDTGEVLNASTFKSGMSACVCVLGVAWLGDTFVKAHISDIQAVAGDLLHNYPWLLAVVLFFAATLLYSQAATTKALMPAALLLGVSPLTAIASFAAVSALFVLPTYPTLLAAVEMDDTGSTRIGKYVFNHAFLIPGVIAITLCVILGFIFGGIML | failed
4 | MFGCLVAGRLVQTDAQQVASDKFVFNLPDYEHVNHVVVFLLGTVPFPEGLGGAVYLCVPGGAAGQVWQLLGFITNEKPSAIFRISGLKAGEGSSHPFGMMDAPAAPSMAQVGVSVEGLHLLAQQTPVSSSAVSTLDSFTQFTQKMLDSLFNFTSSFALSQSRMSPNPSEMFIPASSIRRWYENFQRRLMQNPNFWKT | failed
5 | MFGCPKDLLNGPCGGALDGKCEVNSNLCPWYSLMEKFELLDGAPLLVEHPVVLEMERIFEGEEVEIKRSSFIKNLGRGKAISVEFPIRLFEKGVREFRKVGDLYTIPDNPLGYPHISPTALGTWLKSKGHSVMPHLTAKDRNVIAISSEFRTALEFDFEGILITTGDWSGFILQGKPVFDLDSANMIRLAKLMFSGVLPTGERVEVKERPFIAGTVNPNYPAKLEGKRLARKIIAGADLVISQVVANRKVVREIPKILQEALKYSPHEVPVVVSILYPLKRELEPILRKMGIKTGDDIRAIVEEISSLEFGGINVIVFEETRWEEKLNEVLDLLKELL | failed
6 | MFGLGGEAMIKTQVVKLKVNKTMQKHLDALCDYRRYCWNKGLETWQLMYEAHTLTTKDNPSPNERRVRDELVAGKADWQYDLSARCLQLAIKDLANAWKNFLDKAQPDWGKPRFKSKKAPRQGFKTDRAEIVNGKLRLDKPWSIAKDNWFDLASYEALKMRKVKIASIFKEKGLYYAALTYEENIPAKAKTHKKTAIDVNVGHFNYTDGLINVLPVRLQKLYKRIKHYQRMLARKREINGKLATKTNNYLAVRAKLQRDYRKVVNIQNDLLQKFTTRLVNDYDQIVIEDLAVKEMMMTHVASKGMQRSLFGKFRQILTYKCDWYNKELILASKMYPSTQRCAKCGYVKKGDEKITLQGNQKHGTKHNEYICYRCGYTNDRDENAVLNLLALAK | failed
7 | MFIPQIVPIRDLKNTSAISNLCHKTNEPIFITKNGYGDMVIMSMETYEGNAFFNNLYGNLEEAEMDLQNGRVSGIDEAIEEIKSRYDL | failed
8 | MFITLSERFGLLLAGGFAIMTLAPLDKLGPGRTRSWRATALLVVLFSLFTILGTYNGNIVFQSFANLRAMGAVTAGLFGGPMVGALTGLIAGGHRYFIDVGGFSAVPCGLATFLEGLAAGLFAWRFPSRSLDWGTAMTFAAVGEAVHMCLVLGLARPYAQAVDLVEVIGLPMILLNGVGAAIFVQALRMQMHFRDLRDSSQARQILSIANRTLPHLRAGLSAASARATAEIILDETRVAAVALTSNDMVMAHVGAASDHHRAGHSVCTQATRRVATDGIPLFVTGHDEIGCQLEACPLCSAIIVPLRKGDTILGCLKLYGTKDRPLDQTLFELAKGLADLFATQIELEDIGIKNQLLARAEIRRLQAQINPHFLFNSLNTVASFCRTAPGQARELILDLARYMRRNLDTSREAIHLAEEVEQIRAYLVIEKARFGERIRAVIDIDPETEHCLVPPLLIQPLVENSVRHGILGNEEGGVVRLATSMEDGHVVVVVEDDGAGMPESTRQGILNGTPVTAHGEGIGASNCNQRLVQLYGPAYALSIDSAPGMGTRITFRVPASTDAEVFASAAA | failed
9 | MFKELHPNIRARILIQFLSKIIGSMIFPFMAIYFSMEINSKVAGILLMINVLAQFLAGMYGGHLADIIGRKKLMVAGELLKVFAFLGMVLCNSPVFHSPWITFVMLLLIGVAQGLINPAGEAMLIDVSTPENRSFMYSVSYWANNLSMMIGIIVGGWFFIDYLFPLLVALFIMSFVTAWLTISLISETLKQKAVLKKGSYGLVGMLKNYGQVLHDCRFLLYTLGGIAVMSIEFQRSNYISVRLAEDFQALLVHFGPLGNITLNGVQIVSVLTAVNTLFIVLFTVPVARFVTKRAQQPIMYVGFTLFAIGFAVCAFANNLAVLLLATAVLSIGELLYVPTRQTILAAIVDDNRRGAYMAFNGIIFQIGKMIGSVSLVFAPFIGKYGMATFTILLGVLSIVFSAAALKSGWKKVLAK | failed
10 | MFKLVFKQYKCKSTSPDLTEVVKIDDCVVKGNDQEKSDNNIVQRLSISNVESLQTMPGVKSPKDWRTYTLTNHPGIIVIRNPFSERGRRYWSARCLRDFPRTPNIVNLNERLFDESVRSDWWKQLNLCSDGVEFQRIKSAMRWTTFGYHHNWDTKIYDEEMQSPFPEDLSSLCGLFAQALGYADFKPEAAIVNYYPVGSTLSGHTDHSEPNKSAPLFSFSFGQTAIFLIGGRSLEEKPTAIYLQSGDVMIMSGESRLCYHAVPRIIKTQASATLSLIIEDVDNADIKTRTIDKDLFHDVGNPQFWEPFSRYMDDSRININIRQVLNPGDVKL | failed
11 | MFKSVAKLGKSPIFYLNSQRLIHIKTLTTPNENALKFLSTDGEMLQTRGSKSIVIKNTDENLINHSKLAQQIFLQCPGVESLMIGDDFLTINKDRMVHWNSIKPEIIDLLTKQLAYGEDVISKEFHAVQEEEGEGGYKINMPKFELTEEDEEVSELIEELIDTRIRPAILEDGGDIDYRGWDPKTGTVYLRLQGACTSCSSSEVTLKYGIESMLKHYVDEVKEVIQIMDPEQEIALKEFDKLEKKLESSKNTSHEK | failed
12 | MFKTLEVKYMEDRVLDWAVYEKTAREMVAEGLVLLKNDNKALPLKQGETVSVFGRMQNHYYKSGTGSGGMVNVAKVVGILDALNECKDVNVNQKLAETYAAWDKEHPVELGLGWGQEPWSQAEMPVTEELVQEAAGESDSAIVIIARTAGEDKDNTLEKGAFMLTDIETDMLRLVRENFQKMVVLLNVGGLIDMSFLDTISPDACMYVWQGGMVGGYGVVDVLVGDVSPSGKLTDTIAYDIKDYPAYDNFGGEERNFYAEDIYVGYRYFETFAKDKVRYPFGYGLSYTDFKIGVKHASLDFEKGVANICVKVTNTGKRLGKEVVQVYGEMPQGRLGKPSRVLIDFAKTKELVPGLSDELKFEIPLDRMASFDDSGATGHRNCYVLEAGDYTIHVGNSIRNTTECLFFELAETVELQKLQEALAPYEKFDRMKPFCDENGRMLIEYEETPLVTVDMYDRREQELPEEIPVTGDKGITLLDVREGKATMDEFIAQFDDEDLACFVRGEGMGSSLVTAGTASAFAGVSPNLIAHKIPSVCCDDGPSGMRLDSGMKAFSLPNGTLCGCSFNKELNTRLYALLGLEMTANKVEVLLGPGMNIHRHPLNGRNFEYFSEDPYLTGSIATAQLEGLKSSGVSGTIKHFCGNNQEYHRHTMDSVISQRALREVYLKGFEIAVKSGYADSVMTTYGLVNGLYTAGSYDLNTTILRNEWGFTGVVMTDWWASINRRGMEPDANDFATMIQAQNDMYMCCPDGSKNMGGDNVLEALHDGRILRAELQRIAKNVCSFAMDTNAFKRLVGEPVEIEIINRPKQADDFSIDDVEYINVDRDILIDLTEKASTADTNYVIALDVEHPGEYDVSLRGSSTLEKLAQLPCTLFFNGFPVSNFTFNGTDGKDVVIRKEVKFYSRFNVLRLYVKSNGLDLKDIKFSFEKEF | failed
13 | MFLKIPFKILRLATAYVRIRVKNIILKLKLVFGKNVFIGSNVVIDPGYHWLISIGNNSAITNGVTILSHDGSLSRHTGYTKIGKVSIGSNTFIGVKSIILPGVSIGNNVIIGAGSVVTKDIPDNSVAIGNPAVVVGSIKDYINKHKRMIRTSEVYECQSLLKDNIRDFKGEIGYVKTNFENHEDL | failed
14 | MFLKKKLSAGKSVVGTMLNLVYNPDIVRIYAEAGLDYFIVDCEHAAYTFREINHLVSVAKNAGVSVLVRIPQVDRAHVQRLLDIGAEGFMIPGVQSAETMRETVRLAKYPPLGERGVGGSIVTDFKPVNWAEWVQERNDEIFIMAQIEHVKAVEDIDSILAVQGVDAVIFGPRDLSNDLGIIGQTEHPKVYECYEKVYRAADRQGVVKGFFTAADAAKMGWAVERGAQMLLWSGDVAALQTYTAKGVKTIKELPGFNP | not failed
15 | MFLLSGDPCFKTPPSTAKSISIPGQDSSLQLTCKGGGTSSGGSSTNSLTGSRPPKARPTILSSGLPEEPDQNLSSPEEVFHSGHSRNSSYASQQSKISGYSTEHSRSSSLSDLTHRRNTSTSSSASGGLGMTVEGPEGSEREHRPPEKPPRPPRPLHLSDRSFRRKKDSVESHPTWVDDTRIDADAIVEKIVQSQDFTDGSNTEDSNLRLFVSRDGSATLSGIQLATRVSSGVYEPVVIESH | failed
16 | MFLPKFNPIRSFSPILRAKTLLRYQNRMYLSTEIRKAIEDAIESAPVVLFMKGTPEFPKCGFSRATIGLLGNQGVDPAKFAAYNVLEDPELREGIKEFSEWPTIPQLYVNKEFIGGCDVITSMARSGELADLLEEAQALVPEEEEETKDR | failed
17 | MFLRTQARFFHATTKKMDFSKMSIVGRIGSEFTEHTSANNNRYLKYSIASQPRRDGQTNWYNITVFNEPQINFLTEYVRKGALVYVEADAANYVFERDDGSKGTTLSLVQKDINLLKNGKKLEDAEGQENAASSE | failed
